Bridge positions count the residues as written; N and C are the ends. Square brackets hold non-standard residues; d marks the D form.
Tests used:
His-tagged PCSK9Δhelix = target: T1, His-tagged PCSK9Δhelix (human, UniProt Q8NBP7 31-152; Q8NBP7 168-692); experiment: TR-FRET competition (PCSK9Δhelix/Ab20 assay); competitor Ab20
T1 construct: Human PCSK9 M1-Q692 with an engineered TEV site, cut by TEV protease; new N-terminus of the catalytic domain is S-A168; also called His-PCSK9Δhelix; not shown: His tag

[1] = target: T2, His-tagged, full-length PCSK9 (human, UniProt Q8NBP7 31-692); experiment: TR-FRET competition (PCSK9/EGF(A) assay); competitor EGF(A)-Fc;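 also: proximity signal from anti-His APC on PCSK9 paired with anti-Fc europium on the Fc ligand, read as normalized TR-FRET ratio across compound dilutions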
T2 construct: secreted PCSK9 is autocatalytically cleaved into prodomain and catalytic domain + CRD (from S153), which stay associated; also called His-PCSK9; proprotein convertase subtilisin/kexin type 9; not shown: His tag
T2 sequence (Q8NBP7 31-692 limits assumed): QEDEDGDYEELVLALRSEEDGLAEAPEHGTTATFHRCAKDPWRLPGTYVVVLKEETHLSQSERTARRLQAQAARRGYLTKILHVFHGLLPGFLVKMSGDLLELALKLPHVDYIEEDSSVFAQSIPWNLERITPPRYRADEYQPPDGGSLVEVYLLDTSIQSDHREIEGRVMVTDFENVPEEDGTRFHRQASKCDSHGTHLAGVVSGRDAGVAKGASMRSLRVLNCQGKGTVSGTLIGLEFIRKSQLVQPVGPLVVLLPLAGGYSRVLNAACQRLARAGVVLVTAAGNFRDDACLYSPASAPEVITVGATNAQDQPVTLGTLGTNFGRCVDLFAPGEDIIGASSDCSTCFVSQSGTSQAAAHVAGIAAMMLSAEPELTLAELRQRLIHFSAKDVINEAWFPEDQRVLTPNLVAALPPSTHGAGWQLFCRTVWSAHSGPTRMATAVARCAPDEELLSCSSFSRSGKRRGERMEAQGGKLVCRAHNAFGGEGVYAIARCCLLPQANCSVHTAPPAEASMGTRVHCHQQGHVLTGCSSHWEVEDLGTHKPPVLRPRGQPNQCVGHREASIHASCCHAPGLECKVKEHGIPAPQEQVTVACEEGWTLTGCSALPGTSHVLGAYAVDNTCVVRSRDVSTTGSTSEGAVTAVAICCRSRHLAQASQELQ

T1 sequence (Q8NBP7 31-152, stated change not applied, chain 1 of 2): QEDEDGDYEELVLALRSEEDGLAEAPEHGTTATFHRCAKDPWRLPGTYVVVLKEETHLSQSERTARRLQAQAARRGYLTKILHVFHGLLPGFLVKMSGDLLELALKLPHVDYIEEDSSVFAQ
T1 sequence (Q8NBP7 other isoform, or with tags, fused parts or gaps mutant, chain 2 of 2): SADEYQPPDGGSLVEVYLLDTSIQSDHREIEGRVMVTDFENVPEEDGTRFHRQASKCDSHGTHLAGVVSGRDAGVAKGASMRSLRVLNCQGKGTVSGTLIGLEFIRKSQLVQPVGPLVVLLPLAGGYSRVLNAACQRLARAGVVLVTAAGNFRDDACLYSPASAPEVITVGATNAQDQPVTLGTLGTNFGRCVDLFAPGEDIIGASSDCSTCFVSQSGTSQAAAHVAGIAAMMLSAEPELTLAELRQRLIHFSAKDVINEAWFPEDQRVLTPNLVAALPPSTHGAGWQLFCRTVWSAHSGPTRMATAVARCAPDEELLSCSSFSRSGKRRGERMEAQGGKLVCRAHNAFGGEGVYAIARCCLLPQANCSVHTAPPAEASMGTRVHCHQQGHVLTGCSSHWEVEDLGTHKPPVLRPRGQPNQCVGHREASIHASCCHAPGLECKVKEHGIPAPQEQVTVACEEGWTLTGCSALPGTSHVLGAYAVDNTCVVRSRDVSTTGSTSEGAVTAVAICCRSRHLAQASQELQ

B1: Compound 68 (Ac-CRLPWNLQRIGLAC-NH2) (peptide)
peptide: Ac-CRLPWNLQRIGLAC-NH2
modifications: disulfide 1-14
SMILES: CC[C@H](C)[C@@H]1NC(=O)[C@H](CCCNC(=N)N)NC(=O)[C@H](CCC(N)=O)NC(=O)[C@H](CC(C)C)NC(=O)[C@H](CC(N)=O)NC(=O)[C@H](Cc2c[nH]c3ccccc23)NC(=O)[C@@H]2CCCN2C(=O)[C@H](CC(C)C)NC(=O)[C@H](CCCNC(=N)N)NC(=O)[C@@H](NC(C)=O)CSSC[C@@H](C(N)=O)NC(=O)[C@H](C)NC(=O)[C@H](CC(C)C)NC(=O)CNC1=O
B1 gave an IC50 (His-tagged PCSK9Δhelix) of 0.939 µM and an IC50 [1] greater than 50 µM.

B2: Compound 69 (Ac-CRLPWNLQRIGAPC-NH2) (peptide)
peptide: Ac-CRLPWNLQRIGAPC-NH2
modifications: disulfide 1-14
SMILES: CC[C@H](C)[C@@H]1NC(=O)[C@H](CCCNC(=N)N)NC(=O)[C@H](CCC(N)=O)NC(=O)[C@H](CC(C)C)NC(=O)[C@H](CC(N)=O)NC(=O)[C@H](Cc2c[nH]c3ccccc23)NC(=O)[C@@H]2CCCN2C(=O)[C@H](CC(C)C)NC(=O)[C@H](CCCNC(=N)N)NC(=O)[C@@H](NC(C)=O)CSSC[C@@H](C(N)=O)NC(=O)[C@@H]2CCCN2C(=O)[C@H](C)NC(=O)CNC1=O
B2 was tested, and the IC50 (His-tagged PCSK9Δhelix) was 6.64 µM and the IC50 [1] was greater than 50 µM.

B3: Compound 70 (Ac-CRLPWNLQRIALPC-NH2) (peptide)
peptide: Ac-CRLPWNLQRIALPC-NH2
modifications: disulfide 1-14
SMILES: CC[C@H](C)[C@@H]1NC(=O)[C@H](CCCNC(=N)N)NC(=O)[C@H](CCC(N)=O)NC(=O)[C@H](CC(C)C)NC(=O)[C@H](CC(N)=O)NC(=O)[C@H](Cc2c[nH]c3ccccc23)NC(=O)[C@@H]2CCCN2C(=O)[C@H](CC(C)C)NC(=O)[C@H](CCCNC(=N)N)NC(=O)[C@@H](NC(C)=O)CSSC[C@@H](C(N)=O)NC(=O)[C@@H]2CCCN2C(=O)[C@H](CC(C)C)NC(=O)[C@H](C)NC1=O
With B3 the IC50 (His-tagged PCSK9Δhelix) was 7.26 µM and the IC50 [1] was greater than 50 µM.

B4: Compound 71 (Ac-CRLPWNLQRAGLPC-NH2) (peptide)
peptide: Ac-CRLPWNLQRAGLPC-NH2
modifications: disulfide 1-14
SMILES: CC(=O)N[C@H]1CSSC[C@@H](C(N)=O)NC(=O)[C@@H]2CCCN2C(=O)[C@H](CC(C)C)NC(=O)CNC(=O)[C@H](C)NC(=O)[C@H](CCCNC(=N)N)NC(=O)[C@H](CCC(N)=O)NC(=O)[C@H](CC(C)C)NC(=O)[C@H](CC(N)=O)NC(=O)[C@H](Cc2c[nH]c3ccccc23)NC(=O)[C@@H]2CCCN2C(=O)[C@H](CC(C)C)NC(=O)[C@H](CCCNC(=N)N)NC1=O
For B4, the IC50 (His-tagged PCSK9Δhelix) was 49.5 µM and the IC50 [1] was greater than 50 µM.

B5: Compound 72 (Ac-CRLPWNLQAIGLPC-NH2) (peptide)
peptide: Ac-CRLPWNLQAIGLPC-NH2
modifications: disulfide 1-14
SMILES: CC[C@H](C)[C@@H]1NC(=O)[C@H](C)NC(=O)[C@H](CCC(N)=O)NC(=O)[C@H](CC(C)C)NC(=O)[C@H](CC(N)=O)NC(=O)[C@H](Cc2c[nH]c3ccccc23)NC(=O)[C@@H]2CCCN2C(=O)[C@H](CC(C)C)NC(=O)[C@H](CCCNC(=N)N)NC(=O)[C@@H](NC(C)=O)CSSC[C@@H](C(N)=O)NC(=O)[C@@H]2CCCN2C(=O)[C@H](CC(C)C)NC(=O)CNC1=O
Work on B5 yielded an IC50 (His-tagged PCSK9Δhelix) of 39.6 µM and an IC50 [1] greater than 50 µM.

B6: Compound 73 (Ac-CRLPWNLARIGLPC-NH2) (peptide)
peptide: Ac-CRLPWNLARIGLPC-NH2
modifications: disulfide 1-14
SMILES: CC[C@H](C)[C@@H]1NC(=O)[C@H](CCCNC(=N)N)NC(=O)[C@H](C)NC(=O)[C@H](CC(C)C)NC(=O)[C@H](CC(N)=O)NC(=O)[C@H](Cc2c[nH]c3ccccc23)NC(=O)[C@@H]2CCCN2C(=O)[C@H](CC(C)C)NC(=O)[C@H](CCCNC(=N)N)NC(=O)[C@@H](NC(C)=O)CSSC[C@@H](C(N)=O)NC(=O)[C@@H]2CCCN2C(=O)[C@H](CC(C)C)NC(=O)CNC1=O
With B6 the IC50 (His-tagged PCSK9Δhelix) was 0.915 µM and the IC50 [1] was greater than 50 µM.

B7: Compound 74 (Ac-CRLPWNAQRIGLPC-NH2) (peptide)
peptide: Ac-CRLPWNAQRIGLPC-NH2
modifications: disulfide 1-14
SMILES: CC[C@H](C)[C@@H]1NC(=O)[C@H](CCCNC(=N)N)NC(=O)[C@H](CCC(N)=O)NC(=O)[C@H](C)NC(=O)[C@H](CC(N)=O)NC(=O)[C@H](Cc2c[nH]c3ccccc23)NC(=O)[C@@H]2CCCN2C(=O)[C@H](CC(C)C)NC(=O)[C@H](CCCNC(=N)N)NC(=O)[C@@H](NC(C)=O)CSSC[C@@H](C(N)=O)NC(=O)[C@@H]2CCCN2C(=O)[C@H](CC(C)C)NC(=O)CNC1=O
B7 gave an IC50 (His-tagged PCSK9Δhelix) of 49.5 µM and an IC50 [1] greater than 50 µM.

B8: Compound 75 (Ac-CRLPWALQRIGLPC-NH2) (peptide)
peptide: Ac-CRLPWALQRIGLPC-NH2
modifications: disulfide 1-14
SMILES: CC[C@H](C)[C@@H]1NC(=O)[C@H](CCCNC(=N)N)NC(=O)[C@H](CCC(N)=O)NC(=O)[C@H](CC(C)C)NC(=O)[C@H](C)NC(=O)[C@H](Cc2c[nH]c3ccccc23)NC(=O)[C@@H]2CCCN2C(=O)[C@H](CC(C)C)NC(=O)[C@H](CCCNC(=N)N)NC(=O)[C@@H](NC(C)=O)CSSC[C@@H](C(N)=O)NC(=O)[C@@H]2CCCN2C(=O)[C@H](CC(C)C)NC(=O)CNC1=O
With B8 the IC50 (His-tagged PCSK9Δhelix) was 49.5 µM and the IC50 [1] was greater than 50 µM.

B9: Compound 76 (Ac-CRLPANLQRIGLPC-NH2) (peptide)
peptide: Ac-CRLPANLQRIGLPC-NH2
modifications: disulfide 1-14
SMILES: CC[C@H](C)[C@@H]1NC(=O)[C@H](CCCNC(=N)N)NC(=O)[C@H](CCC(N)=O)NC(=O)[C@H](CC(C)C)NC(=O)[C@H](CC(N)=O)NC(=O)[C@H](C)NC(=O)[C@@H]2CCCN2C(=O)[C@H](CC(C)C)NC(=O)[C@H](CCCNC(=N)N)NC(=O)[C@@H](NC(C)=O)CSSC[C@@H](C(N)=O)NC(=O)[C@@H]2CCCN2C(=O)[C@H](CC(C)C)NC(=O)CNC1=O
B9 showed an IC50 (His-tagged PCSK9Δhelix) of 49.5 µM and an IC50 [1] greater than 50 µM.

B10: Compound 77 (Ac-CRLAWNLQRIGLPC-NH2) (peptide)
peptide: Ac-CRLAWNLQRIGLPC-NH2
modifications: disulfide 1-14
SMILES: CC[C@H](C)[C@@H]1NC(=O)[C@H](CCCNC(=N)N)NC(=O)[C@H](CCC(N)=O)NC(=O)[C@H](CC(C)C)NC(=O)[C@H](CC(N)=O)NC(=O)[C@H](Cc2c[nH]c3ccccc23)NC(=O)[C@H](C)NC(=O)[C@H](CC(C)C)NC(=O)[C@H](CCCNC(=N)N)NC(=O)[C@@H](NC(C)=O)CSSC[C@@H](C(N)=O)NC(=O)[C@@H]2CCCN2C(=O)[C@H](CC(C)C)NC(=O)CNC1=O
B10 showed an IC50 (His-tagged PCSK9Δhelix) of 6.02 µM and an IC50 [1] greater than 50 µM.

B11: Compound 78 (Ac-CRAPWNLQRIGLPC-NH2) (peptide)
peptide: Ac-CRAPWNLQRIGLPC-NH2
modifications: disulfide 1-14
SMILES: CC[C@H](C)[C@@H]1NC(=O)[C@H](CCCNC(=N)N)NC(=O)[C@H](CCC(N)=O)NC(=O)[C@H](CC(C)C)NC(=O)[C@H](CC(N)=O)NC(=O)[C@H](Cc2c[nH]c3ccccc23)NC(=O)[C@@H]2CCCN2C(=O)[C@H](C)NC(=O)[C@H](CCCNC(=N)N)NC(=O)[C@@H](NC(C)=O)CSSC[C@@H](C(N)=O)NC(=O)[C@@H]2CCCN2C(=O)[C@H](CC(C)C)NC(=O)CNC1=O
Work on B11 yielded an IC50 (His-tagged PCSK9Δhelix) of 5.56 µM and an IC50 [1] greater than 50 µM.

B12: Compound 79 (Ac-CALPWNLQRIGLPC-NH2) (peptide)
peptide: Ac-CALPWNLQRIGLPC-NH2
modifications: disulfide 1-14
SMILES: CC[C@H](C)[C@@H]1NC(=O)[C@H](CCCNC(=N)N)NC(=O)[C@H](CCC(N)=O)NC(=O)[C@H](CC(C)C)NC(=O)[C@H](CC(N)=O)NC(=O)[C@H](Cc2c[nH]c3ccccc23)NC(=O)[C@@H]2CCCN2C(=O)[C@H](CC(C)C)NC(=O)[C@H](C)NC(=O)[C@@H](NC(C)=O)CSSC[C@@H](C(N)=O)NC(=O)[C@@H]2CCCN2C(=O)[C@H](CC(C)C)NC(=O)CNC1=O
B12 was tested, and the IC50 (His-tagged PCSK9Δhelix) was 1.53 µM and the IC50 [1] was greater than 50 µM.

B13: Compound 80 (Ac-CRLPWNLQRIGLGC-NH2) (peptide)
peptide: Ac-CRLPWNLQRIGLGC-NH2
modifications: disulfide 1-14
SMILES: CC[C@H](C)[C@@H]1NC(=O)[C@H](CCCNC(=N)N)NC(=O)[C@H](CCC(N)=O)NC(=O)[C@H](CC(C)C)NC(=O)[C@H](CC(N)=O)NC(=O)[C@H](Cc2c[nH]c3ccccc23)NC(=O)[C@@H]2CCCN2C(=O)[C@H](CC(C)C)NC(=O)[C@H](CCCNC(=N)N)NC(=O)[C@@H](NC(C)=O)CSSC[C@@H](C(N)=O)NC(=O)CNC(=O)[C@H](CC(C)C)NC(=O)CNC1=O
Binder B13 has an IC50 (His-tagged PCSK9Δhelix) of 0.65 µM and an IC50 [1] greater than 50 µM.

B14: Compound 81 (Ac-CRLPWNLQRIGGGC-NH2) (peptide)
peptide: Ac-CRLPWNLQRIGGGC-NH2
modifications: disulfide 1-14
SMILES: CC[C@H](C)[C@@H]1NC(=O)[C@H](CCCNC(=N)N)NC(=O)[C@H](CCC(N)=O)NC(=O)[C@H](CC(C)C)NC(=O)[C@H](CC(N)=O)NC(=O)[C@H](Cc2c[nH]c3ccccc23)NC(=O)[C@@H]2CCCN2C(=O)[C@H](CC(C)C)NC(=O)[C@H](CCCNC(=N)N)NC(=O)[C@@H](NC(C)=O)CSSC[C@@H](C(N)=O)NC(=O)CNC(=O)CNC(=O)CNC1=O
B14 gave an IC50 (His-tagged PCSK9Δhelix) of 28.8 µM and an IC50 [1] greater than 50 µM.

B15: Compound 99 (Ac-CRLPWNLQRIGLpC-NH2) (peptide)
peptide: Ac-CRLPWNLQRIGL[dP]C-NH2
modifications: disulfide 1-14
SMILES: CC[C@H](C)[C@@H]1NC(=O)[C@H](CCCNC(=N)N)NC(=O)[C@H](CCC(N)=O)NC(=O)[C@H](CC(C)C)NC(=O)[C@H](CC(N)=O)NC(=O)[C@H](Cc2c[nH]c3ccccc23)NC(=O)[C@@H]2CCCN2C(=O)[C@H](CC(C)C)NC(=O)[C@H](CCCNC(=N)N)NC(=O)[C@@H](NC(C)=O)CSSC[C@@H](C(N)=O)NC(=O)[C@H]2CCCN2C(=O)[C@H](CC(C)C)NC(=O)CNC1=O
With B15 the IC50 (His-tagged PCSK9Δhelix) was 1.3 µM and the IC50 [1] was greater than 50 µM.

B16: Compound 108 (Ac-CRlPWNLQRIGLPC-NH2) (peptide)
peptide: Ac-CR[dL]PWNLQRIGLPC-NH2
modifications: disulfide 1-14
SMILES: CC[C@H](C)[C@@H]1NC(=O)[C@H](CCCNC(=N)N)NC(=O)[C@H](CCC(N)=O)NC(=O)[C@H](CC(C)C)NC(=O)[C@H](CC(N)=O)NC(=O)[C@H](Cc2c[nH]c3ccccc23)NC(=O)[C@@H]2CCCN2C(=O)[C@@H](CC(C)C)NC(=O)[C@H](CCCNC(=N)N)NC(=O)[C@@H](NC(C)=O)CSSC[C@@H](C(N)=O)NC(=O)[C@@H]2CCCN2C(=O)[C@H](CC(C)C)NC(=O)CNC1=O
With B16 the IC50 (His-tagged PCSK9Δhelix) was 28.2 µM and the IC50 [1] was greater than 50 µM.
